Data reported in article PMC5864754, “Cryo-EM structure of the polycystic kidney disease-like channel PKD2L1” (Nature Communications, 2018).

Molecular target: the molecule itself
Experiment: cryo-EM structure; purified PKD2L1 (64-629) in amphipols, 20 mM HEPES pH 7.5, 150 mM NaCl, about 5 mg/ml; C4 symmetry applied; 3.38 Å

B1: PKD2L1 (residues 64–629) (domain or fragment, mouse, UniProt A2A259 64-629, looked up)
chain: TLVSSCCLHICRSIRGLWGTTLTENTAENRELYVKTTLRELVVYIVFLVDICLLTYGMTSSSAYYYTKVMSELFLHTPSDSGVSFQTISSMSDFWDFAQGPLLDSLYWTKWYNNQSLGRGSHSFIYYENLLLGAPRLRQLRVRNDSCVVHEDFREDILNCYDVYSPDKEDQLPFGPQNGTAWTYHSQNELGGSSHWGRLTSYSGGGYYLDLPGSRQASAEALQGLQEGLWLDRGTRVVFIDFSVYNANINLFCILRLVVEFPATGGTIPSWQIRTVKLIRYVNNWDFFIVGCEVVFCVFIFYYVVEEILEIHLHRLRYLSSVWNILDLVVILLSIVAVGFHIFRTLEVNRLMGKLLQQPDTYADFEFLAFWQTQYNNMNAVNLFFAWIKIFKYISFNKTMTQLSSTLARCAKDILGFAIMFFIVFFAYAQLGYLLFGTQVENFSTFVKCIFTQFRIILGDFDYNAIDNANRILGPVYFVTYVFFVFFVLLNMFLAIINDTYSEVKEELAGQKDQLQLSDFLKQSYNKTLLRLRLRKERVSDVQKVLKGGEPEIQFEDFTSTLRELG
modifications: oligosaccharides identified on N241 and N207; glycosylation site N177
notes: Mus musculus PKD2L1, residues 64-629; lacks the EF hand and the coiled-coil domain; residues 101-563 are visible in the structure; Homotetrameric channel; Cloned in a pCAG vector; also called PKD2L1_64–629; truncated PKD2L1; source: exchanged into amphipols
stoichiometry N: 4
